Sequences and labels used below:
B1: Endo-1,4-beta-xylanase A, P26514 (parent)
chain: MGSYALPRSGVRRSIRVLLLALVVGVLGTATALIAPPGAHAAESTLGAAAAQSGRYFGTAIASGRLSDSTYTSIAGREFNMVTAENEMKIDATEPQRGQFNFSSADRVYNWAVQNGKQVRGHTLAWHSQQPGWMQSLSGSALRQAMIDHINGVMAHYKGKIVQWDVVNEAFADGSSGARRDSNLQRSGNDWIEVAFRTARAADPSAKLCYNDYNVENWTWAKTQAMYNMVRDFKQRGVPIDCVGFQSHFNSGSPYNSNFRTTLQNFAALGVDVAITELDIQGAPASTYANVTNDCLAVSRCLGITVWGVRDSDSWRSEQTPLLFNNDGSKKAAYTAVLDALNGGDSSEPPADGGQIKGVGSGRCLDVPDASTSDGTQLQLWDCHSGTNQQWAATDAGELRVYGDKCLDAAGTSNGSKVQIYSCWGGDNQKWRLNSDGSVVGVQSGLCLDAVGNGTANGTLIQLYTCSNGSNQRWTRT

The series covers variants of B1. As to conditions: Streptomyces lividans; pH 6; Thermal; CD; sodium phosphate 10 mM; structure 1XAS; whole UniProt chain shown.

Regarding W307A, the Tm stood at 63.3 °C and the “change of melting temperature, mutant - wild type (higher = more stable)” value (shortened to “change of melting temperature, mutant”) was -4.7 °C.

As to W307H, the Tm was found to be 60.7 °C and the “change of melting temperature, mutant” value was -7.3 °C.

For the variant W307F, the Tm amounted to 64.7 °C and the “change of melting temperature, mutant” value was -3.3 °C.

W315F: the Tm was 68.8 °C and the “change of melting temperature, mutant” value came to 0.8 °C.

As to W315H, the Tm is 68.2 °C and the “change of melting temperature, mutant” value was found to be 0.2 °C.

Take W315A: the Tm came to 72.1 °C and the “change of melting temperature, mutant” value was determined as 4.1 °C.

Take Y213A: the midpoint of thermal melting (Tm) was 63 °C and the “change of melting temperature, mutant” value is -5 °C.

As for Y213F, the Tm came out at 67.1 °C and the “change of melting temperature, mutant” value is -0.9 °C.

With Y213S, the Tm came out at 69.6 °C and the “change of melting temperature, mutant” value turned out to be 1.6 °C.

Consider W126A, for which the Tm is 70 °C and the “change of melting temperature, mutant” value is 2 °C.

Take W126F: the Tm worked out at 64 °C and the “change of melting temperature, mutant” value is -4 °C.

With W126H, the midpoint of thermal melting (Tm) was 67 °C and the “change of melting temperature, mutant” value is -1 °C.

As usually defined, the Tm is the temperature at the midpoint of the melting transition.
